This assay concerns the target T1, human LEPR (Homo sapiens, UniProt P48357).
T1 construct: introducing DNA plasmids encoding full-length LEPR of different species and STAT3-luciferase reporter gene into HEK293 cells; expressed in transfected cells; host or cells: HEK293 (HEK293-STAT3Luc-hLepR1)
T1 sequence (P48357 22-1165): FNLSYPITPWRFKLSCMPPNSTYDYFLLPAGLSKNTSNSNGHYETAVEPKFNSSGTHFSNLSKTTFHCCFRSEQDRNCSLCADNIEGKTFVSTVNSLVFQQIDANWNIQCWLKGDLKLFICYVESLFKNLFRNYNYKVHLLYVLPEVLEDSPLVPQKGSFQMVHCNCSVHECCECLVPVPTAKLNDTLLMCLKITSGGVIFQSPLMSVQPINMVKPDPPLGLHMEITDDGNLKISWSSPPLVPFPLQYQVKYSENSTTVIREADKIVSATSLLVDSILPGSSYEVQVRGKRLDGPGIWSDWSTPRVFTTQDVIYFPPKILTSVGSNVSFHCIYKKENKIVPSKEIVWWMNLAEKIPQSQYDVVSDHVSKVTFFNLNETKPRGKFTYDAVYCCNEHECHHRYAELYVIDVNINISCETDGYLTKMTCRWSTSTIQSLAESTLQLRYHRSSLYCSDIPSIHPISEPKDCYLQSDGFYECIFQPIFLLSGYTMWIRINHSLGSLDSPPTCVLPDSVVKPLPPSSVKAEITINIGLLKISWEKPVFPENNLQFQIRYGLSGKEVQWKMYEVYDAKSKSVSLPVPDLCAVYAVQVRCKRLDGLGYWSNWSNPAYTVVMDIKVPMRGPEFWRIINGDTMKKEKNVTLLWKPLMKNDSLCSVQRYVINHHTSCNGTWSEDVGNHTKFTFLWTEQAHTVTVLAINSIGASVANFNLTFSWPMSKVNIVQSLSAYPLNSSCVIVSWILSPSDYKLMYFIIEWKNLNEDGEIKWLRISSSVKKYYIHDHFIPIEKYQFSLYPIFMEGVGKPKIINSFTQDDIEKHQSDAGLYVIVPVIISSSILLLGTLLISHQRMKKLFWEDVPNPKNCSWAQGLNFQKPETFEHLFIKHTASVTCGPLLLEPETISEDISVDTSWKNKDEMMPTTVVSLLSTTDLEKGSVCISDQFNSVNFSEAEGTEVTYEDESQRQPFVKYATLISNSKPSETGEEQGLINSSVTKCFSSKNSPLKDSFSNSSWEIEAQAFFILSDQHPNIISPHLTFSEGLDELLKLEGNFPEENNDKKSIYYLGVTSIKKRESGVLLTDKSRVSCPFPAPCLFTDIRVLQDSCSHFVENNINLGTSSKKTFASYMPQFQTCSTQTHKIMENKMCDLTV
The assay can be described thus: STAT3-luciferase reporter assay in HEK293-STAT3Luc-hLepR1 cells. The format is cell-based. The text has this: LEPR is a cell surface single-pass transmembrane receptor. Activation of LEPR leads to phosphorylation of intracellular STAT3 (pSTAT3) and subsequent target gene transcription. To measure LEPR activation by anti-LEPR antibodies in the present disclosure, five independent STAT-luciferase reporter cell lines were established by introducing DNA plasmids encoding full-length LEPR of different species and STAT3-luciferase reporter gene into HEK293 cells (Table 4). […]
Before plating the cells for luciferase assays, the poly-D-Lysine coated 96-well plates (Corning Inc, #354651) were rinsed once with phosphate buffered solution (PBS). […] Cell lysing and One-Glo luciferase substrate solution (Promega, #E6120) were then added to each well, and relative luciferase units (RLUs) were measured on a ClarioStar plate reader. For each reporter cell line, positive control LEPR activation was calculated as the average RLUs stimulated by 20 nM recombinant human leptin protein (SEQ ID NO:27) minus the average RLUs of unstimulated cells and was set as maximum LEPR activation (100%). […]
In general terms: Reporter assays use an easily measured gene product as a stand-in for the process of interest.

From US20250289897A1, “LEPTIN RECEPTOR AGONISTIC ANTIBODY AS MONO OR COMBO THERAPIES TO TREAT OBESITY” (ELI LILLY AND COMPANY, priority 2024, published 2025) come the findings set out here.

A word on the EC50: it is the midpoint of the concentration-response curve. For “human leptin: recombinant human leptin protein (SEQ ID NO:27), positive control”, the EC50 (STAT3-luciferase, 20 hours, read-out: EC50 (nM) ± SEM) came out at 0.0491 ± 0.0044 nM. The “Agonism (%) ± SEM” value (top of fitted curve vs response to 20 nM recombinant human leptin) worked out at 105.83%.
